Tested on: His-PTB (polypyrimidine tract-binding protein, pETPTB), P26599-1
Test: EMSA

Sequence: GGGCCAGACACUGAUUAUAUGGUUCAUAUGGGUAAUUACCUUCCCUAGGCUAAGGACUAACUGGUAUAUACCAUAAUUAAA [SHFV 3'(+)NCR RNA]
- Kd: 7 nM

Reference: publication PMC7126611
